One molecule from article PMC5027577 can be followed below.

In assay [1] the target is T1, TGF-β type I receptor (TRI) (human (endogenous in HeLa)), P36897.
T1 chain: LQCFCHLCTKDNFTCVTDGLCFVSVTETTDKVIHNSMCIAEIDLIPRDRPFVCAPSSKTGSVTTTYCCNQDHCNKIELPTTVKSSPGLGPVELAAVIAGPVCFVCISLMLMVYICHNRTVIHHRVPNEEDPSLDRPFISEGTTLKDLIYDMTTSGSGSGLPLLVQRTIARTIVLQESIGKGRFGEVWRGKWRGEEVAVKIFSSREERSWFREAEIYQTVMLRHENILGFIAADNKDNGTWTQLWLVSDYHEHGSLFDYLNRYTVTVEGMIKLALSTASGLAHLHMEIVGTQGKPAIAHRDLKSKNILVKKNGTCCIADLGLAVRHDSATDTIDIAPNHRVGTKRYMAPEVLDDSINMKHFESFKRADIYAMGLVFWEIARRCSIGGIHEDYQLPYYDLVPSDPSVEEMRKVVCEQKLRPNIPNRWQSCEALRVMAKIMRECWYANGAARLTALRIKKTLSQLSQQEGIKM
Briefly: live-cell single-molecule TIRFM tracking (membrane on-times); EGFP-Smad3 or EGFP-M-Smad3 at low expression in living HeLa cells, unstimulated; 10 Hz; cumulative histograms of on-times fitted with a single exponential. As to conditions: remark: other sources report otherwise.

Assay [2] addresses T1, TGF-β type I receptor (TRI) (human …). The assay can be described thus: live-cell single-molecule TIRFM tracking (membrane on-times); EGFP-Smad3 or EGFP-M-Smad3 at low expression in living HeLa cells treated with 10 ng/ml TGF-β1 for 15 min at 37 °C; 10 Hz; cumulative histograms of on-times fitted with a single exponential. Particulars: remark: other sources report otherwise.

B1: EGFP-Smad3, P84022 1-425 (natural protein)
chain: MSSILPFTPPIVKRLLGWKKGEQNGQEEKWCEKAVKSLVKKLKKTGQLDELEKAITTQNVNTKCITIPRSLDGRLQVSHRKGLPHVIYCRLWRWPDLHSHHELRAMELCEFAFNMKKDEVCVNPYHYQRVETPVLPPVLVPRHTEIPAEFPPLDDYSHSIPENTNFPAGIEPQSNIPETPPPGYLSEDGETSDHQMNHSMDAGSPNLSPNPMSPAHNNLDLQPVTYCEPAFWCSISYYELNQRVGETFHASQPSMTVDGFTDPSNSERFCLGLLSNVNRNAAVELTRRHIGRGVRLYYIGGEVFAECLSDSAIFVQSPNCNQRYGWHPATVCKIPPGCNLKIFNNQEFAALLAQSVNQGFEAVYQLTRMCTIRMSFVKGWGAEYRRQTVTSTPCWIELHLNGPLQWLDKVLTQMGSPSIRCSSVS
In assay [1], B1 had a koff of 1.96 s⁻¹ and a time constant of membrane on-times (τu) of 0.51 s. Moreover, in assay [2], the koff was determined as 1.67 s⁻¹ and the time constant of membrane on-times (τs) worked out at 0.6 s.
